From US20080249606A1 (published 2008)

Experiments:
[1] = molecular target: T1, Blocking Reagent (catalogue number 11112589001, Roche Diagnostics) immobilized in ELISA wells; experiment: ELISA, Blocking Reagent on Costar 2595 plate
T1 construct: One molecule for all four plate types; The plate is named under assay in each row

[2] = molecular target: T1, Blocking Reagent (catalogue number …); experiment: ELISA, Blocking Reagent on Nunc Immobilizer Amino plate
[3] = molecular target: T1, Blocking Reagent (catalogue number …); experiment: ELISA, Blocking Reagent on Greiner Microlon high-binding plate
[4] = molecular target: T1, Blocking Reagent (catalogue number …); experiment: ELISA, Blocking Reagent on Costar 9102 plate (second experiment, FIG. 2M)
[5] = molecular target: T1, Blocking Reagent (catalogue number …); experiment: ELISA, Blocking Reagent on Costar 9102 plate, tPA concentration series in PBS pH 7.3 with 10 mM εACA
[6] = molecular target: T2, BSA incubated overnight with dextran sulphate 500,000 Da (DXS500k) (bovine, UniProt P02769 25-607); experiment: ELISA, protein/DXS500k mixture immobilized on Greiner Microlon plate, tPA in 10 mM εACA, detection with antibody 374b
T2 construct: Same protein as m3, misfolded by contact with DXS500k (a non-protein polymer present in the mixture); also called BSA with DXS500k; DXS500k-protein mixture
T2 sequence (P02769 25-607 limits assumed): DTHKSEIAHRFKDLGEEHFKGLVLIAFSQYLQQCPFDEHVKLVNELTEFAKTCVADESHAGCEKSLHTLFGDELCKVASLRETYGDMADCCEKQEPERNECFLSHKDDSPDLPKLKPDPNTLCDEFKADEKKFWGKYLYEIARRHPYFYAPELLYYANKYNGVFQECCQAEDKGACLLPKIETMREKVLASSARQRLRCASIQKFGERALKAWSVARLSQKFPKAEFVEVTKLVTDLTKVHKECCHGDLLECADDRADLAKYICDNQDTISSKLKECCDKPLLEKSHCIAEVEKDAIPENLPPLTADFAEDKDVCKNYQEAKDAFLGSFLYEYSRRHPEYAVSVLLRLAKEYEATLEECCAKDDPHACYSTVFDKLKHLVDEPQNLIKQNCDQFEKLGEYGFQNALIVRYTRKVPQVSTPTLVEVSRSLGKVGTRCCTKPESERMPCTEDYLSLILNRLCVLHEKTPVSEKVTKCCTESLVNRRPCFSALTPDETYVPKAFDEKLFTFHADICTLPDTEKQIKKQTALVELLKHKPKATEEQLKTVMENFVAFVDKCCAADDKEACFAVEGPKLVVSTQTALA

Kd [1]: 30 nM | Kd [2]: 39 nM | Kd [3]: 23000 nM | Kd [4]: ~0.5 nM | Kd [5]: 0.6 nM | factor of increase of tPA binding against the protein incubated with buffer only [6]: 1.3 fold
B1: tissue-type plasminogen activator (tPA, Actilyse, Boehringer-Ingelheim) (enzyme, UniProt P00750 36-562, looked up)
chain: SYQVICRDEKTQMIYQQHQSWLRPVLRSNRVEYCWCNSGRAQCHSVPVKSCSEPRCFNGGTCQQALYFSDFVCQCPEGFAGKCCEIDTRATCYEDQGISYRGTWSTAESGAECTNWNSSALAQKPYSGRRPDAIRLGLGNHNYCRNPDRDSKPWCYVFKAGKYSSEFCSTPACSEGNSDCYFGNGSAYRGTHSLTESGASCLPWNSMILIGKVYTAQNPSAQALGLGKHNYCRNPDGDAKPWCHVLKNRRLTWEYCDVPSCSTCGLRQYSQPQFRIKGGLFADIASHPWQAAIFAKHRRSPGERFLCGGILISSCWILSAAHCFQERFPPHHLTVILGRTYRVVPGEEEQKFEVEKYIVHKEFDDDTYDNDIALLQLKSDSSRCAQESSVVRTVCLPPADLQLPDWTECELSGYGKHEALSPFYSERLKEAHVRLYPSSRCTSQHLLNRTVTDNMLCAGDTRSGGPQANLHDACQGDSGGPLVCLNDGRMTLVGIISWGLGCGQKDVPGVYTKVTNYLDWIRDNMRP
notes: Bought drug product
